Assay [1] deals with T1, prostate specific membrane antigen (PSMA) (human, UniProt Q04609 1-750).
T1 construct: whole, on cells; In the assays PSMA stood as endogenous protein in LNCaP cell membrane preparations (ELISA) or LNCaP lysate (western blot); The background says PSMA forms a noncovalent homodimer
As to the kind of experiment: ELISA, serially diluted antibody on membrane preparation of PSMA-expressing LNCaP cells against PSMA-negative PC-3. How it is done:
FIG. 4: immunoreactivity mAb1 to cancer cell line. Serially diluted purified antibody was tested by ELISA on a cell membrane preparation that express PSMA (LNCaP) or not (PC-3). The antibody reacts strongly with the LNCaP preparation while the PC-3 remains unreactive;
Immunoreactivity of mAb1_against cancer cell line was tested by ELISA. Serially diluted purified antibody was tested on a cell membrane preparation that express PSMA (LNCaP) or not (PC-3).

Assay [2] concerns the target T1, prostate specific membrane antigen …. Briefly: ELISA after 5 days at 37 C in 0.1M glycine buffered with Tris to pH 7.4.
Assay [3] has the same target. As to the kind of experiment: ELISA on LNCaP or PC-3 membrane preparation. On the procedure: An ELISA assay was used to test the reactivity and specificity of purified chimeric anti-PSMA antibodies. Briefly, 96-well plates (Immulon 2HB) were coated overnight at 4° C. or for 2 h at 37° C. with 100 uL of PBS containing 5 ug of cell membrane preparation. Plates were washed four times with 200 uL of 10 mM Tris-HCl, 150 mM NaCl, and 0.1% Tween-20 (TBST, pH 7.5), and blocked for 1 h with 200 uL of TBST containing 5% FBS. Plates were then washed and incubated for 1 h at room temperature using 100 uL of serially diluted purified chimeric anti-PSMA antibodies in TBST containing 5% FBS. Antibody binding was detected by the sequential addition, followed by washing, of 100 uL of horseradish peroxidase (HRP) conjugated goat anti-human IgG whole molecule (Jackson Immunoresearch) diluted 1:5000 in TBST containing 5% FBS, for 1 h at room temperature, and 100 uL of HRP colorimetric substrate solution 3,3′,5,5′-tetramethylbenzidine (BioFX Laboratories). The reaction was stopped with the addition of 100 uL of 0.5 M sulphuric acid and the absorbance was read at 450 nm in a microplate reader (Bio-Tek Instruments).
The reactivity of the DOTA conjugated antibody (chAb1-DOTA) was compared to the unconjugated antibody (chAb1) by ELISA on a cell membrane preparation that express PSMA (LNCaP) or not (PC-3) (FIG. 14).

T1 sequence (Q04609 whole entry): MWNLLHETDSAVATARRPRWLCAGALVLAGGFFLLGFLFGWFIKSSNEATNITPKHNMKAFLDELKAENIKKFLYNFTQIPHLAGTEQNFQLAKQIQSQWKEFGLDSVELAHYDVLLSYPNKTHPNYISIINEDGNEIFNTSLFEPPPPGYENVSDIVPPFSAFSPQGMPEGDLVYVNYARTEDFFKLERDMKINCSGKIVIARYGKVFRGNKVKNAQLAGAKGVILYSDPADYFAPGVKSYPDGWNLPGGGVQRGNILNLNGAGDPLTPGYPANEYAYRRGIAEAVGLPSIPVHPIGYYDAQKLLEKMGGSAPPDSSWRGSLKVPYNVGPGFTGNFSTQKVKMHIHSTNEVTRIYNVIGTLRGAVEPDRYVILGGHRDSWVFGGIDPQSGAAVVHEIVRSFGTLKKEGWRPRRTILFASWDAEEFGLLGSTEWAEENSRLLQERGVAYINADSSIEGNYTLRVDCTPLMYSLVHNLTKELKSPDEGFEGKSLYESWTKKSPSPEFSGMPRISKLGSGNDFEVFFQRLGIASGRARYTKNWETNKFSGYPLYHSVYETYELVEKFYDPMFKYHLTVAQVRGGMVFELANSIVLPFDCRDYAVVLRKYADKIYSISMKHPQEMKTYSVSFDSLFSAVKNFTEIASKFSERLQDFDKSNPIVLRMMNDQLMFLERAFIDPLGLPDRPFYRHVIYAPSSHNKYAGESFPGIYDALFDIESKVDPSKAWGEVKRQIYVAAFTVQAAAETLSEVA

B1: murine monoclonal anti-PSMA antibody mAb1 (antibody, V domains shown)
VH: EVQLQQSGAELVKPGASVKLSCTASGFNIKDTYMHWVKQRPEQGLEWIGGIDPADGETKYDPKFQDKATITTDTSSNTVYLQISSLTSEDTAVYYCVRSFDYWGQGTTLTVSS
VL: DVVMTQTPLSLPVSLGDQASISCRSSQSLVHSNGNTYLHWYLQKPGQSPKFLIYKASNRFSGVPDRFSGRGSGTDFTLKISRVEAEDLGVYFCFQSTHVPYTFGGGTKLEIKR
notes: also called murine anti-PSMA antibody; murine parental antibody
As to B1, in assay [1], the binding result is “binds”.

B2: murine/human chimeric anti-PSMA antibody chAb1 (antibody, human IgG1, kappa, V domains shown)
VH: EVQLQQSGAELVKPGASVKLSCTASGFNIKDTYMHWVKQRPEQGLEWIGGIDPADGETKYDPKFQDKATITTDTSSNTVYLQISSLTSEDTAVYYCVRSFDYWGQGTTLTVSS
VL: DVVMTQTPLSLPVSLGDQASISCRSSQSLVHSNGNTYLHWYLQKPGQSPKFLIYKASNRFSGVPDRFSGRGSGTDFTLKISRVEAEDLGVYFCFQSTHVPYTFGGGTKLEIKR
notes: also called chimeric antibody
For the molecule B2, in assay [2], the binding result is reported as “binds”.

B3: DOTA-conjugated chimeric anti-PSMA antibody chAb1-DOTA (antibody, V domains shown)
VH: EVQLQQSGAELVKPGASVKLSCTASGFNIKDTYMHWVKQRPEQGLEWIGGIDPADGETKYDPKFQDKATITTDTSSNTVYLQISSLTSEDTAVYYCVRSFDYWGQGTTLTVSS
VL: DVVMTQTPLSLPVSLGDQASISCRSSQSLVHSNGNTYLHWYLQKPGQSPKFLIYKASNRFSGVPDRFSGRGSGTDFTLKISRVEAEDLGVYFCFQSTHVPYTFGGGTKLEIKR
modifications: DOTA conjugated through DOTA-NHS ester; sites and chain not stated
notes: also called DOTA conjugated antibody
As to B3, in assay [3], the binding result was “binds”.
